Experimental data from patent publication US20130064788A1 (ELEVEN BIOTHERAPEUTICS, published 2013).

B1: IL-17RC extracellular domain (receptor)
chain: LERLVGPQDATHCSPVSLEPWGDEERLRVQFLAQQSLSLAPVTAATARTALSGLSGADGRREERGRGKSWVCLSLGGSGNTEPQKKGLSCRLWDSDILCLPGDIVPAPGPVLAPTHLQTELVLRCQKETDCDLCLRVAVHLAVHGHWEEPEDEEKFGGAADSGVEEPRNASLQAQVVLSFQAYPTARCVLLEVQVPAALVQFGQSVGSVVYDCFEAALGSEVRIWSYTQPRYEKELNHTQQLPDCRGLEVWNSIPSCWALPWLNVSADGDNVHLVLNVSEEQHFGLSLYWNQVQGPPKPRWHKNLTGPQIITLNHTDLVPCLCIQVWPLEPDSVRTNICPFREDPRAHQNLWQAARLQLLTLQSWLLDAPCSLPAEAALCWRAPGGDPCQPLVPPLSWENVTVDKVLEFPLLKGHPNLCVQVNSSEKLQLQECLWADSLGPLKDDVLLLETRGPQDNRSLCALEPSGCTSLPSKASTRAARLGEYLLQDLQSGQCLQLWDDDLGALWACPMDKYIHKR
notes: Expressed in 293S GnTI- cells with and without a C-terminal BirA tag; An additional C-terminal Fc tag was cleaved by 3C protease

How the values were obtained:
[1] = biological target: T1, pre-assembled IL-17RC-IL-17A complex (IL-17A captured by immobilised IL-17RC) (human, UniProt Q8NAC3 21-538; Q16552 25-155, C-terminal biotin on BirA tag); assay: SPR; second receptor injected over IL-17A captured by immobilised IL-17RC
T1 construct: One receptor and one IL-17A dimer on the SPR chip; also called existing IL-17RC-IL-17A complex
T1 sequence 1: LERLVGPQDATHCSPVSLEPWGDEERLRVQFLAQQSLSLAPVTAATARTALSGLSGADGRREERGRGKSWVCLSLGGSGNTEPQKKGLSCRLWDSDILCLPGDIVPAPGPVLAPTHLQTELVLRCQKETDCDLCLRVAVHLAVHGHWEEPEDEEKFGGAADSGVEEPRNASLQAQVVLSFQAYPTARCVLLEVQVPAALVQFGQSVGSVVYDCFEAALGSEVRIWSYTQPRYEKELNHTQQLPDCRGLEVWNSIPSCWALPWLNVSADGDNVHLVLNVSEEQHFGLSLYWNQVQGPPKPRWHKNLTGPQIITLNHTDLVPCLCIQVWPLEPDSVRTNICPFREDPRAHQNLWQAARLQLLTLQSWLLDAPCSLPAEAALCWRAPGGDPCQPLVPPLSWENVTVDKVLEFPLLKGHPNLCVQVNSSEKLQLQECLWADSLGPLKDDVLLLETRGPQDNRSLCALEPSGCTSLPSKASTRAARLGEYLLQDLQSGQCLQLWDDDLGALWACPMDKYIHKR
T1 sequence 2: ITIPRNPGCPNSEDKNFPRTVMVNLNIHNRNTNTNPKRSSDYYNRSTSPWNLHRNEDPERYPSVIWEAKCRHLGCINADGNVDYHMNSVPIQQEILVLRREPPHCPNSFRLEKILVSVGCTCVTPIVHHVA
Source text: (§1) Whilst others have reported the binding affinities of IL-17RA and IL-17RC for IL-17A and IL-17F (7, 22), we considered it pertinent to assess the binding affinity of the second receptor-binding site. The strategy was to immobilize one receptor on the SPR chip at a low coupling density in order to minimize possible homo-dimerization (e.g. cross-linking) of the receptors on the chip. The dimeric IL-17 cytokine was then captured by this receptor so that each receptor would be bound to one dimeric IL-17 ligand, leaving an exposed and accessible second receptor-binding site. The second receptor was subsequently passed over the preformed receptor-cytokine complexes to measure the affinity of the second receptor-binding event. In this fashion, the complex was assembled in a stepwise manner and each of the binding affinities was measured (FIG. 3).
(§2) Binding affinities were calculated via surface plasmon resonance (SPR) on a BIACORE® T100 (GE Healthcare). C-terminally biotinylated IL-17 receptors were coupled to immobilized streptavidin on either an SA or CM4-sensor chip (GE Healthcare). An irrelevant, biotinylated protein was captured at equivalent immobilization densities to control flow cells. […] Data was analyzed using BIACORE® T100 evaluation software Version 2.0 (GE Healthcare). […]

[2] = biological target: T2, human IL-17RA extracellular domain (ECD) (human, UniProt Q96F46 32-317); assay: plate binding assay to the soluble extracellular domain of IL-17RA
T2 construct: For SPR it was made with and without a C-terminal BirA ligase tag: the biotinylated form was immobilised and the other was injected; For the crystal it was treated with endoglycosidase H and lysine-methylated; also called IL-17RA ECD; IL-17RA ectodomain
T2 sequence: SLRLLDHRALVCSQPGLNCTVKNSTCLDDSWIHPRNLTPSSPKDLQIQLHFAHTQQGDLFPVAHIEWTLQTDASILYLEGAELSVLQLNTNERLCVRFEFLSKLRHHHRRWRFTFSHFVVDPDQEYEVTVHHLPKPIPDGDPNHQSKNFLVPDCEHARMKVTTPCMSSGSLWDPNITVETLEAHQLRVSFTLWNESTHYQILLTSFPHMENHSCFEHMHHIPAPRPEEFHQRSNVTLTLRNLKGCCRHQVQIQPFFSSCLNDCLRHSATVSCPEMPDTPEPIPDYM

[3] = biological target: T2, human IL-17RA extracellular domain (ECD); assay: SPR, Biacore T100
Protocol: (§3) IL-17RA has been implicated in IL-17E (also known as IL-25) signaling together with IL-17RB (23). IL-25 promotes Th2 inflammatory responses and shares approximately ˜20% identity with IL-17A and IL-17F. […] We hypothesized that IL-17RA may only bind IL-25 once IL-25 is captured by IL-17RB. To test this hypothesis, we immobilized IL-17RB on an SPR chip, captured IL-25 and measured the affinity of IL-17RA for the IL-17RB-IL-25 complex. […] At concentrations up to 50 μM, no interaction could be observed between IL-17RA and IL-25, or between the IL-17RB-IL-25 complex and a second IL-17RB molecule.
as §2, with “cells. To measure the second receptor binding interaction, the cytokine was first captured to the immobilized receptor, followed by the second receptor injection. Low coupling densities (200-400 RU) and excess cytokine concentrations were used to optimize the number of cytokine homodimers bound to a single receptor.” for “cells.”

[4] = biological target: T2, human IL-17RA extracellular domain (ECD); assay: SPR, Biacore T100; biotinylated receptor on streptavidin chip, cytokine injected
Source text: as §1, §2

[5] = biological target: B1; assay: as above
Source text: as §1, §2

[6] = biological target: T3, pre-assembled IL-17RB-IL-25 complex (IL-25 captured by immobilised IL-17RB) (human, UniProt Q9NRM6 18-292; Q9H293 33-177, C-terminal biotin on BirA tag); assay: SPR, Biacore T100; second receptor injected over IL-25 captured by immobilised IL-17RB
T3 construct: One receptor and one IL-25 dimer on the SPR chip
T3 sequence 1: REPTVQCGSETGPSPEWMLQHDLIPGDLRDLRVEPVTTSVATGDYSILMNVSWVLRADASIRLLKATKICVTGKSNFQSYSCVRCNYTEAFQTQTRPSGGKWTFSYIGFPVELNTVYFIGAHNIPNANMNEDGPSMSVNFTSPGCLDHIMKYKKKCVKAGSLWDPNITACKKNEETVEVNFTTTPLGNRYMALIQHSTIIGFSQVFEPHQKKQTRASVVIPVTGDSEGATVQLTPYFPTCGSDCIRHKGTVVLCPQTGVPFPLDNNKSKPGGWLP
T3 sequence 2: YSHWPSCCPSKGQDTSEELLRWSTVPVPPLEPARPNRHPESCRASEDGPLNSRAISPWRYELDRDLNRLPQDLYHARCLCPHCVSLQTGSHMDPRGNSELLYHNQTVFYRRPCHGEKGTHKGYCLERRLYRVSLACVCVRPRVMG
Protocol: as §3
as §2, with “cells. To measure the second receptor binding interaction, the cytokine was first captured to the immobilized receptor, followed by the second receptor injection. Low coupling densities (200-400 RU) and excess cytokine concentrations were used to optimize the number of cytokine homodimers bound to a single receptor.” for “cells.”

## B1
[1]
  Kd: 8000 nM

B2: mutant single-chain IL-17A (R47E, S65K subunit - (G4S)6 linker - N89A, C-terminally truncated subunit - His tag) (designed binder)
chain: GITIPRNPGCPNSEDKNFPRTVMVNLNIHNRNTNTNPKRSSDYYNESTSPWNLHRNEDPERYPKVIWEAKCRHLGCINADGNVDYHMNSVPIQQEILVLRREPPHCPNSFRLEKILVSVGCTCVTPIVHHVASGGGGSGGGGSGGGGSGGGGSGGGGSGGGGSGITIPRNPGCPNSEDKNFPRTVMVNLNIHNRNTNTNPKRSSDYYNRSTSPWNLHRNEDPERYPSVIWEAKCRHLGCINADGNVDYHMASVPIQQEILVLRREPPHCPNSFRLEKILVSVGCTCVTPASHHHHHH
notes: also called sc17A-DN; mutant single-chain IL-17A protein
[2]
  affinity relative to wild-type IL-17A (factor): ≤ 4 fold

B3: IL-25 (IL-17E) (ligand)
chain: YSHWPSCCPSKGQDTSEELLRWSTVPVPPLEPARPNRHPESCRASEDGPLNSRAISPWRYELDRDLNRLPQDLYHARCLCPHCVSLQTGSHMDPRGNSELLYHNQTVFYRRPCHGEKGTHKGYCLERRLYRVSLACVCVRPRVMG
notes: Expressed by High Five cells with a C-terminal hexa-His tag; It is treated as a dimeric cytokine in the SPR scheme; not shown: C-terminal hexa-His tag
[3]
  binding result: no binding (tested: up to 50 µM)

B4: IL-17F homodimer (ligand, not shown: small tags and cut ends)
chain: RKIPKVGHTFFQKPESCPPVPGGSMKLDIGIINENQRVSMSRNIESRSTSPWNYTVTWDPNRYPSEVVQAQCRNLGCINAQGKEDISMNSVPIQQETLVVRRKHQGCSVSFQLEKVLVTVGCTCVTPVIHHVQ
notes: Printed as full length IL-17F with a C-terminal hexa-His tag, secreted by High Five insect cells; It is a disulfide-linked homodimer; also called IL-17F/F
[4]
  Kd: 292 nM
[5]
  Kd: 4.4 nM

B5: IL-17RB extracellular domain (receptor)
chain: REPTVQCGSETGPSPEWMLQHDLIPGDLRDLRVEPVTTSVATGDYSILMNVSWVLRADASIRLLKATKICVTGKSNFQSYSCVRCNYTEAFQTQTRPSGGKWTFSYIGFPVELNTVYFIGAHNIPNANMNEDGPSMSVNFTSPGCLDHIMKYKKKCVKAGSLWDPNITACKKNEETVEVNFTTTPLGNRYMALIQHSTIIGFSQVFEPHQKKQTRASVVIPVTGDSEGATVQLTPYFPTCGSDCIRHKGTVVLCPQTGVPFPLDNNKSKPGGWLP
notes: Expressed with and without a C-terminal BirA tag
[6]
  binding result: no binding (tested: up to 50 µM)
